Laboratory results: the nanobody polyreactivity screen of Harvey et al. (2022)

Assay: yeast display, Sf9 membrane polyspecificity reagent, FACS + sequencing; frameworks hold sequencing errors
In short: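 Polyreactivity labels are assigned by the sorting gate from which each nanobody was recovered. The gates were low and high (top ~1%), set on anti-HA fluorescence for expression and streptavidin fluorescence for reagent binding. Before sorting, galactose-induced (36–48 hours) yeast display cells were stained for 1 hour at 4 °C with 10% biotinylated, detergent-solubilized Sf9 membrane reagent.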

Q: For “QVQLVESVGGLVQAGGSLRLSCAASGTLATYAMGWYRQAHGKERELVAAIRYSDGRTYYADSVKGRFTISRDNAKNTVYLLMNSLKPEDTAVYYCAASFRGRGKKLDYWGQGTQVTVSS”, which “polyreactivity (PSR sort gate)” value is on record?
A: low polyreactivity

Q: Which “polyreactivity (PSR sort gate)” value does the source give for “QVQLVESVVGLVQAGGSLRLSCAASVRTFVEYSMGWYRQAPGQERELVAAISSGGGSTYYADSVKGRFTISRDNAKNTVYLQMNSLKPEDTAVSYCATVGYRHRGWTSGYWGQGTQVTVSS” here?
A: high polyreactivity

Q: With “QVQLVESGGGLVQAGGRLRLTCAASGSTLPLNAMGWYRQAPGKEREFVASITYSGGNTYYADSVKGRFTISRDNAKNTVYLQMNSLKPEDTAVYYCAVDEYGIWVGWVPYATFGMNYWGQGTQVTVSS” as the sequence, how does the “polyreactivity (PSR sort gate)” value read?
A: high polyreactivity

Q: For “QVQLVESGGGLVQAGGSLRLSCAASGFIIIGYVMGWYRQSPGKERELVAAITSSVGSTYYADSVKGRFTISRDNAKNPVYLQMNSLKPEDTAVYYCAAEYYLLWSGMEYWGEGTQVTVSS”, which “polyreactivity (PSR sort gate)” value is on record?
A: low polyreactivity

Q: With “QGQLVESGGGLVQAGGSLRLSCAASGSTFWLNAMGWYRHAPGKERELVAVITWSGDGTYYADSVKWRFTISRDNAKNTVYVQMNSLKPEDTAVYYCAKGFERYPWYDYWGQGTQVTVSS” as the sequence, how does the “polyreactivity (PSR sort gate)” value read?
A: low polyreactivity

Q: For “QVQLVESGGGLVQAGGSLRLSCAASGFNIGDYAMGWYRQAPGKERELVAAITISGGGTYYADSVKGRFTISRDNAKNTVYLQMNSLKPEDTAVYYCAAGYYDLNLDTDFGFDYWGQGTQVTVSS”, which “polyreactivity (PSR sort gate)” value is on record?
A: low polyreactivity

Q: Which “polyreactivity (PSR sort gate)” value does the source give for “QVQLVESGGGLVQAGGSLRLSCAASGGTFQAYAMGWYSQAPGKDREFDAAITAGGGSTSYADSVKGRFTISRDNAKNTVDLQLNRLKPEDSAAYYCAVDGGFPVTDYDYWGQGTQVTVST” here?
A: low polyreactivity

Q: With “QVQLVESGGGLVQAGGSLRLSCATSRSTFVLYAMGWYRQAPGKERELDAAISGGATTTYADSVKGRFTISRDNAKNTVYLQMNSLKPEVTAVYYCAADFSTYVVSGAALDYWGQGTQVTLSS” as the sequence, how does the “polyreactivity (PSR sort gate)” value read?
A: low polyreactivity

Q: For “QVQLVESGGGLVQAGGSLRLSCAASGRTFATYSMGRYIQAPGKERELVAAISRSGSTTYYADSVKGRFTISRDNAKNTVYLQMNSLKPEDTAVYYCNAKFRKADYDYWGQGTQVTVSS”, which “polyreactivity (PSR sort gate)” value is on record?
A: high polyreactivity

Q: Which “polyreactivity (PSR sort gate)” value does the source give for “QVQLVESGGGLVQAGGSLRLSCAASGSTFRTNVMGWYRQAPGKERELVAAITKRGSITYYADSVKGRFTISRDNAKNTVYFQMNSLKPEDTAVYYCAARKVAVGGYGYWGQGTQVTVSS” here?
A: high polyreactivity

Q: With “QVQLVESGGGLVQAGGSLRLSCAAYGRTIRYYSMGRYRQAPAKERELVATISRRSGNTYYADSVKGRFTLSRDNAKNTVYLKMNSLKPEDTAVYYCAVRYFGLYNYDYWGQGTQVTVSS” as the sequence, how does the “polyreactivity (PSR sort gate)” value read?
A: high polyreactivity

Q: With “QVQLVESGGGLVQAGGSLRLSCAASGYTFGAYAMGWYRQAPGKERELVAAIPVRAGRTYYADSVKGRFTISRDNAKNTVYLQMNSLKPEDTAVYYCARRNPLGGNEHDYWGQGTQVTVSS” as the sequence, how does the “polyreactivity (PSR sort gate)” value read?
A: low polyreactivity

Q: With “QVQLVESGGGLVQAGGSLRLSCAASGFTFPNYAMGWYRQAPGKERELVAAITSGGGRTNYADSVKGRFTISRDNAKNTVYLQMNSLKPVDTAVYYCAKTRVRGSEFGYWGQGTQVTVSS” as the sequence, how does the “polyreactivity (PSR sort gate)” value read?
A: low polyreactivity

Q: With “QVQLVESGGGLVQAGGSLRLSCAASGIIFLWYAMGWYRQAPGKERELVAAISRTGSSTYYADSVKGRFTISRDNAKNTVYFQMNSLKPEDTAVYYCAAAYYSKRSWRFDYWGQGTQVTVSS” as the sequence, how does the “polyreactivity (PSR sort gate)” value read?
A: high polyreactivity

Q: Which “polyreactivity (PSR sort gate)” value does the source give for “QGQLVETGGGLGQAGGSLRLSCAASGIIFYYYAMGWYRQAPGKERELVAAITGTGSRTYYADSVKGRFTISRDNAKNTVYIQMNSLKPEDTAVYYCYARSFATCSKVPARGYWGQGTQVTVSS” here?
A: high polyreactivity

Q: Which “polyreactivity (PSR sort gate)” value does the source give for “QDLLVDSGGGLVQAGGSLRVSCAASGYTRFYAMGWYRQAPGKERELVAAISSSGGTTYYADSVKGRFTISRDNAKNNVYLQMNSLKPEDTAVYYCAKFLSYSRTLYDYWGQGTQVTVSS” here?
A: high polyreactivity

Q: For “QVQLVESGGGLVQPGGSLRLSCAASGIIFGSYAMGWYRQAPGKERELFAAITKSGGSTFYADSVKGRYTISRDNAKNTVYLQMNSLKPEDTAVYYCTAVKYRYLEYNYWGQGTQVTVSS”, which “polyreactivity (PSR sort gate)” value is on record?
A: high polyreactivity

Q: With “QVQLQESGGGLVQAGGSLRLSCAASGSIFDTPTMGWYRQAPGKERELVASIAYDDNTYYADSVKGRFTISRYNAKHTVYLQMNSLKPGDTAVYYCAVTDRIYYYFVYWGQGTRVTVSS” as the sequence, how does the “polyreactivity (PSR sort gate)” value read?
A: high polyreactivity

Q: Which “polyreactivity (PSR sort gate)” value does the source give for “QVQLVESGGGLVQAGGSLRLSCAASGRTLGKYVMGWYRQAPGKERELVAAISVRGGTTYYADSVKGRFTISRDNAKYTVYLQMNSLKPEDTAVYYGNKAYYVWYGWGQGTQVTVSS” here?
A: high polyreactivity

Q: Which “polyreactivity (PSR sort gate)” value does the source give for “QVQLVESGGGLVQAGGSLRLSCAASGRTFRRYAMGWYRQAPGKERELVAGISRSGVSSYYADSVKGRFTISRDNAKNTVYLQMNSLKPEDTAVYYCATRYVPTLRSSGDYWGQGTQVTVSS” here?
A: high polyreactivity

Q: Which “polyreactivity (PSR sort gate)” value does the source give for “QVHIVESGGGLDQAGGSLRLSCAASGFTFNAYAMGWYRQAPGKERELVAAISGRGSSTYYADSVKGRFTISRDNAKNTVYLQMNSLKPEDTEVYYCATKFYYQYPYRGDYWGQGTEVTVSS” here?
A: high polyreactivity

Q: With “QVQLVDSGGGLVQAGGSLRLSCAASGSTFWYNAMGWYRQAPGKERELVAANSISDGNTYYADSVKGRFTISRDNAKNTVFLQMYSLKPEDTAVYYCNAGYWYDGPDYITEYDYWGQGTQVTVSS” as the sequence, how does the “polyreactivity (PSR sort gate)” value read?
A: low polyreactivity

Q: Which “polyreactivity (PSR sort gate)” value does the source give for “QVQLVESGGGLVQAGGSLRLSCAASGSIFVPYARGWYRQAPGKERELVAAISNGDSTYYADSVKGRFTISRDNAKNTVYLQMNSLKPEDTAVYYCAADAVKASVSYIVPYAAYDYWGQGTQVTVSS” here?
A: low polyreactivity

Q: For “QVQLVETGGRLVQAGGSLRLSCAASGFTFHQYTMGWYRQAPGKESELVAAITGTGDTYYADSVKGRFTISRDNAKNTVNLQMNSLKPEDTAVYYCAADWVTYWYYKGFYYWGQGTQVTVSS”, which “polyreactivity (PSR sort gate)” value is on record?
A: high polyreactivity

Q: With “QVQLVESGGGLVQAGGSLRLSCAASGFTFRNYAMGWYRQAPGKERELVAAISKSGGSTYYADSVKGRFTISRDNAKNTVYLQMNSLKPEDTAVYYCATDYLYVYGFEYYYWGQGTQVTVSS” as the sequence, how does the “polyreactivity (PSR sort gate)” value read?
A: high polyreactivity

Q: With “QVQLEESGGGLVQAGGSLRLSCAASGFISFAYAMGWYIQAPGKERELVAGISRSGDSTYYADSVKGRFTISRDNAKNTVYLQMNSLKPEDTAVYYCAARQVDWFDYTTAQVGSYKVNYWGQGTQVTVSS” as the sequence, how does the “polyreactivity (PSR sort gate)” value read?
A: low polyreactivity

Q: Which “polyreactivity (PSR sort gate)” value does the source give for “QVQLVESGGGLVQAGGSLRLSCAASGSTITYYTMGWYRQAPGKERELVAAISGSGGRTYYADSVKGRFTISRDNAKNTVYLQMNSLKPEDTAVYYCAAVYQLSRYDYWGQGTQVTVSS” here?
A: high polyreactivity

Q: For “QVQLVESGGGLVQAGGSLRLSCAASGSIFWYYAMGWYRQAPGKERELVARITYSSGSTYYADSVKGRFTISRDNAKNTVYLQMNSLKPEDTAVFYCAVRLYSYLYNPFNYWGQGTQVTVSS”, which “polyreactivity (PSR sort gate)” value is on record?
A: high polyreactivity

Q: Which “polyreactivity (PSR sort gate)” value does the source give for “QVQLVESGGGLVQAGGSLRLSCASSVRIFGSNVMGWYRQAPGKERELVASISSGGNTYYADSVKGRFTISRDNAKNTVYLQMNSLKPEDTAVYYCAARRGSAGQWYDYWGQGTQVTVSS” here?
A: high polyreactivity

Q: For “QVQLVESGGGIVQAGGSLSLTWAASGSTFAYYAMGRYRQAPGKERELVAAISSSGGRTYYADSVKWRFTISRDNAKNTVYLQMIMLKPEDSAVYYCWGQATQVTVSS”, which “polyreactivity (PSR sort gate)” value is on record?
A: low polyreactivity

Q: For “QVQLVESGGGLVQAGGSLRLSCAASGSTFPRNAMGWYRQAPGKERELVAAISYSGGRTYYADSVKGRFTISRDNAKNTVYLQMNSLKPEDTAVYYCAAQPYSLVRGKSYGYWGQGTQVTVSS”, which “polyreactivity (PSR sort gate)” value is on record?
A: high polyreactivity

Q: With “QVQLVESGGGLVQAGGSLRLSCAASGSIFWRNAMGWYRQAPGKERELVAAITSGGTTNYADSVKGRFTISRDNAKNTVYLQMISLIPEDTAVYYCATGASYLRRYDHPHSDVDYWGQGTQVTVSS” as the sequence, how does the “polyreactivity (PSR sort gate)” value read?
A: low polyreactivity

Q: Which “polyreactivity (PSR sort gate)” value does the source give for “QVQLVESGGGLVQAGGSLRLSCAASGSTFYWYAMGWYRQAPGKEREFVAAISLGSGSTYYADSVKGRFTISRDNAKNTVYLQMNSLKPEDTAVYYCATVPWYIKVGQKRNDYWGQGTQVTVSS” here?
A: high polyreactivity

Q: With “QVHLVESGGGLVQAGGSLRLSCAASGITFSPYAMGWSRQAPGKERELVAAISSGSSTKYADSVKGRFTISRDNAKNTVYLQMNSLKPEDTAVYYCAARWFDGYAAYGYWGQGTEVTVSS” as the sequence, how does the “polyreactivity (PSR sort gate)” value read?
A: high polyreactivity

Q: For “QVQLVESGGGLVQAGGSLRLSCAASGYIFYNAMGSYRQAPGKERELVAAISSSGGTTYADSVKGRFTISRDNAKNTVYLQMNSLKPEDTAVYYCAARSEFYWGWEYITYDYWGQGTQVTVSS”, which “polyreactivity (PSR sort gate)” value is on record?
A: low polyreactivity

Q: With “QVQLVESGGGLLQAGGSLLLSCAASGSIFDTNAMGWYRQAPGTERELVAAISWSDTSTYADSVKGRFTISRDNAKNTVYLQMNSLKPEDTAVYYCATDTRSQAYYYWGQGTQVNVSS” as the sequence, how does the “polyreactivity (PSR sort gate)” value read?
A: low polyreactivity

Q: Which “polyreactivity (PSR sort gate)” value does the source give for “QDQLVESVGSLVQAGGSHRLSCSASGFIIANNPMGWYRQAPGKERELVATITGGGSTDYADTVKRRFTISRDNAKNTVYLQMNSLKPEDTAVYYCAAEYKYWAFASPSLTTNDSWGQGTQVTVSS” here?
A: low polyreactivity

Q: For “QVQLVESGGGLVQAGGSLRLSCAASGRIFYINAMGWYRQAPGKEMELVAAITGSVGSTYYADSVKGRFTISRDNAKNTVYLLMNSQKPEDTAVYYCAASDQPYNGGDGDYWGQGTQVTVSS”, which “polyreactivity (PSR sort gate)” value is on record?
A: low polyreactivity

Q: With “QGQLVESGGGLVQAGGSLRLSCAASGSIVWYNAMGWYRQAPGKERELVAAINWSGGSTFYADSVKGRFTISRDNAKNTVYLQMYSLKPEDTAVYYCAADDWYTGYDYWGQGTQVTVSS” as the sequence, how does the “polyreactivity (PSR sort gate)” value read?
A: high polyreactivity

Q: Which “polyreactivity (PSR sort gate)” value does the source give for “QVQLVESRGGLVQAGGSLRLSCASSGFTFSINAMGWYRQAPGNERELVASITWSGGRTYYADSVKGRFTISRDNAKNTVYLQMNSLKPEDTAVYYCAARSYGTSTYDYWGQGTQVTVSS” here?
A: high polyreactivity

Q: Which “polyreactivity (PSR sort gate)” value does the source give for “QVQLVETGGGLVQAGGSLRLSCAASGFIFRGNAMGWYRQAPGKERELVAAISKRGGSTNYADSVKGRFTISRDNAKNTVYLQMNSLKPEDTAVYYCNAEGIYRQPRGYVYRYDYWGQGTQVTVSS” here?
A: high polyreactivity

Q: Which “polyreactivity (PSR sort gate)” value does the source give for “QVQLVESGGGLVQAGGSLRLSCAASGRTFVPYAMGWYRQAPGKERELVAAINSGGSTYYADSVKGRFTISRDNAKNTVYLQMNSLKPEDTAVYYCAAEYWNSRFSYAYGYWGQGTQVTVSS” here?
A: high polyreactivity

Q: For “QVQLVESGGGLVQAGGSLRLSCAASGFTFRYYAMGWYRQAPGKERELVAAINSGDSTNYADSVKGRFTISRDNAKNTVYLQMNSLKPEDTAVYYCATRLWKIPGAMYYWGQGTQVTVSS”, which “polyreactivity (PSR sort gate)” value is on record?
A: high polyreactivity
